From patent US20240026407A1, “MODIFICATION OF SAPONINS” (GLAXOSMITHKLINE BIOLOGICALS SA, priority 2020, published 2024)

B1: 324 (protein, listed as Kluyveromyces marxianus)
chain: MSKFDVEQLLSELNQDEKISLLSAVDFWHTKKIERLGIPAVRVSDGPNGIRGTKFFDGVPSGCFPNGTGLASTFDRDLLETAGKLMAKESIAKNAAVILGPTTNMQRGPLGGRGFESFSEDPYLAGMATSSVVKGMQGEGIAATVKHFVCNDLEDQRFSSNSIVSERALREIYLEPFRLAVKHANPVCIMTAYNKVNGEHCSQSKKLLIDILRDEWKWDGMLMSDWFGTYTTAAAIKNGLDIEFPGPTRWRTRALVSHSLNSREQITTEDVDDRVRQVLKMIKFVVDNLEKTGIVENGPESTSNNTKETSDLLRKIAADSIVLLKNKNNILPLKKEDNIIVIGPNAKAKTSSGGGSASMNSYYVVSPYEGIVNKLGKEVDYTVGAYSHKSIGGLAESSLIDAAKPADAENSGLIAKFYSNPVEERSDDEEPFHVTKVNRSNVHLFDFKHEKVDPKNPYFFVTLTGQYVPQEDGDYIFSLQVYGSGLFYLNDELIIDQKHNQERGSFCFGAGTKERTKKLTLKKGQVYNVRVEYGSGPTSGLVGEFGAGGFQAGVIKAIDDDEEIRNAAELAAKHDKAVLIIGLNGEWETEGYDRENMDLPKRTNELVRAVLKANPNTVIVNQSGTPVEFPWLEDANALVQAWYGGNELGNAIADVLYGDVVPNGKLSLSWPFKLQDNPAFLNFKTEFGRVIYGEDIFVGYRYYEKLQRKVAFPFGYGLSYTTFELDISDFKVTDDKIAISVDVKNTGDKFAGSEVVQVYFSALNSKVSRPVKELKGFEKVHLEPGEKKTVNIDLELKDAISYFNEELGKWHVEAGEYLVSVGTSSDDILSVKEFKVEKELYWKGL
B2: 4 (protein, listed as Microbacterium azadirachtae)
chain: MTLPPFDVDTVLAALTLEEKASLLSGLDDWYTQPLDRPGLPQRVPSIEVGDGPHGLRKETGVDMVWVPATGFPTASAMGASWDRQLMRRVAAAIGEEARAEGVQVVLGPGVNMKRSPLCGRNFEYFSEDPVHSGELGAAYVDGVQAVGVGTSLKHFAANNQEIERTRISVVADERTLRETYLSAFERVVTKADPWTVMCSYNRLLGVHASQNHWLLTEVLRDEWGYRGAVVSDWNAVHDRVAALRAGLDLEMPGTQGATDAEIVAAVQDGQLDIGVVDAAARRVLELVARAYPGADRVNGAVMDLGHAAGDRLTAEQLRLLRAAEHHELAREAAIGSMTLLRNETIPGGGGPALPLEEHSEGAVAVVGAFAEHARVQGGGSSGVDPTRIDAPLAAIRAIANGRVHYAPGYIYEVKNAYQDDNLAILAAHGVVTEEEKPRVARRSATLAKELQLAEAVQHLGKRPLSAAAERLIDEAAVIAGQAETIVVFAGLPLSYEQEANDRDTLALPADQVALILRMADVREKTGARLVVVLSNGSPVTMDPWHDRVDAIVEAWLGGQAVGSAVAEVLFGRSNPSGKLAETFPLALEDTPGFPNWLGERGTVLYGEGVFIGYRWYDALRREVRYPFGHGLSYTTFSYSDLRVDLVDAEVGRVTVTCTVTNTGDVAGQEVVQLYVGDPDAEVQRPLRELRGFEKVKIEAGESTRVRFELLNRDFAYWDSAAVRPDGKTGLWRREGGEFRIEVGASSRDIRLSESIVLSDDPSIPPLVPDAELLDIAASRFVQGHAG
B3: 9 (protein, listed as Streptomyces rubrolavendulae)
chain: MTADEAVEAALGALDLDTKARLLAGQDMWTLPAVPAVGLASLVMSDGPVGVRGVRWTADDPSVTLPSPTALAACWDPELARRAGRLLAQEARRKGVHVVLAPTVNLHRSPLGGRHFEAYSEDPYLTAETGAACVRGIQDGGVAATVKHFVANDAETDRFTVDNTVPPRALRELYLAPFEAIVRCARPWALMAAYNQVNGVTMTENRHLQTEVLRDAWGFDGVVVSDWFAARSTTGALVGGLDVAMPGPHTVYGDALAAAVRAGDVDEALVDRSVRRVLRLAARVGALEGAEPAVPSPPAHVDGEALAREIAHRSFVLVRNECGALPLDPARSRRVALVGAAARDARVLGGGSAHVFPARTVSPLDGLAAALPEGTELVHARGADLSGEPAPAGPGFALRAVCRDAEGTVLADVPLPSGQIQWIGADLPGGVTHEALHTVEVTGTYTPREGGAHGFGTRGVGAFTLTVGGRVLYDGTREAEPAGDPFEAFAGTPAEHGAADLAEGVPVEVSLRHTVDRDRPAPLPAVVFSLLHRPPRRDPDELIAEAVEAARGADAAVVVVATTERVESEGFDRADLRLPGRQDDLVRAVAAANPRTVVVVNAGAPVEMPWRDDVAAVLLTWFPGQEGGAALADVLLGAEEPGGRLPTTWPAALADAPVTAVTPVDGELRYEEGPFIGYRAWDRAPGGPAPAYPFGHGLGYTTWEYESLVVTPATARVRVRNTGTRPGREVIQLYVAPRADLAERPARWLVGFASVTAGPGARAEAEIRFAPRPFDVWDEEAGAWTAVPGQYEIRAGRSLTDTRLTVTLELD
B4: 302 (protein, listed as Rhodococcus sp.)
chain: MTTRPDLTLEQQAALLSGHDFWSTEAIEEAGIPSVVLTDGPHGVRYQSGDSDHLGLHASLPATCFPLAVAVGSSWDRSVAEEVGRAVGREARALGVHVVLGPGVNIKRSPLCGRNFEYYSEDPLLSGVLGAAHVRGLQSVGVGACVKHFAANNQETDRMRVSADVDDRTLREIYLPAFERVVAEARPAAVMCSYNKVNGVSAAENRWLLTEVLREQWGFAGVVVSDWGAVADRVAGVTAGLDLEMPGSGGGTDRQVVDAVRDGRLDPRLVEASAHRVLALSDLVRPAAGDLDLDGQHALARRLAADCAVLLKNADGVLPLRRGQHVAVLGSFATTPRFQGGGSSHIAPTRVDPALDAVRALAAAHGLTVSAADGFPLGADGDARALLDEAVRVAAAADVAVVFAGLTEREESEGFDRDTLDLPPVQVALVRAVARAAPRTVVVLAHGGVVSLEGWHDEVDAILDGWLLGQAGGSAIADLLLGVATPSGHLAETVPLRLEDTPSYLNFPGEQGHVRYGEGVMVGYRGYETLRRAVRYPFGHGLSYTTFVTESLDVALGGDGTVAVRVRVRNAGDRAGKHVVQMYVATDAGPVRRPVRELRAFEKIELAPGEARDVELTLERRAFAYWDVELDDWVVAPGEYAIQVCADAATVLEARTVTLAGDVVSRPLSMESTVGEWFSHPTVGPAFLEVLAGATGSAPTPDPQEHAGLLRMVESIRMAQFLTFLPIPVPQEKLDELLALGGTVANSATDAAAGNRDHPAPTPPGQPGGP
B5: 178 (protein)
chain: MSELYCPIPPRDQDIYRFRQQFGANLGSTFVLGPHDNTGESNELQLLKTSLASTGLEQTRQKWQSHWHSALTDDDLVWLKDVAQCRTLRLPLSFYSLGPLFCRGTAFEGDPSEVYHHCWSTVKHLIEKCWFHGIGILIDFQASASGINLCASAKDRTIARDCVAFLAQEITFHSMSAVVGLSVSSGCEPAPDMCECYDEILKIANAIDACLPVYIDDNQAQCNKRVFKGCESDIPQFKSDISIGKIQIPSQMMLPETEVREKINKAKAERSGFQEKVLSQVSESWGSNERQSFVHGWNLGYDDALRFFGAAVQGILAPRKGADKIYDIELWVQQRKRDIDPEQLGENSAAWEDGLRRGIQDFYNIIGI
modifications: Aspergillus niger
B6: 319 (protein)
chain: MTAAPSDKELLALLSQLTTAEKVLLLSGKSTWETPEIERLHVPSLKVSDGPNGARGAQFTDGTTAACFPACVSLAATFNRSLARQIGVALGEETQTKGAYVLLGPTVCPHRSPLGGRNFESFSEDPFLTGELASEYVVGLQSQRVAATVKHFAINEQDTRRFTVNETVSERAMREIYLRPFEIVVKKADPWCIMTSYPKVNGAYVDDQTTFLKDILRDEWKFKGLVMTDWGAASAAIANGIRNGLDLEMPGPPHRRQPAVVHKLIEDGKVDVKDIDDRVLPLLKLLRQTGKFTDRREPVPERAISRPEHEKLIREAGGEGVVLLKNSDGALPLKPSHLQNIAVLGPLAKHAAAHGGGSASLNCHYKISPFDAIKSRLPDSKLSYSKGAHVFRAYPDFVAGTRNRLGNPGFAADFYENLNLTGEPFYTEEYPRGSFMTLMNENVVTAKSARLSTAYSPNVSGKHYLSFSGMGPARLFINGEFQGEIKETAEAMSFLLGVQEERHLQYDFVTGKTYDIVIESTISPNPNAELYLADDQIAVHLGFVSQQEMDADVLSEAVSFAKDADVALIFVGNTPQWETEGQDMATMTLPADGSQDKLIAEVAKVNPNTIVIITTGVPVELPWLENVAAVVQAWYGGQETGNSILDVLLGEVNPSGRLPMSWPKKNEHTACYGHFGLDSWDSREVEYVEGVNVGYRHFDSQYGTEQEVMFPFGYGLSYSTFEHSACALSGTLDANDENAKITVAVTVHNTSDVAGSEVVQVYVTPPKSRTGVERPPKALVAFEKIHLNPGAQKDIQLTFKRDGAAFWSEARKLWEVEAGEHEVHVSTSSSPQDIKSTLVLGITKGFTFHP
modifications: Colletotrichum gloeosporioides

Assay: Experiment 4-1: screening of glucosidases for deglycosylation with purified QS-18 (0.04 mg/ml) at pH 7.5 and room temperature
Assay type: biochemical, Quillaja saponaria
Settings: pH 7.5, room temperature, 20 h, clarified E. coli lysate, QS-18 2150 to QS-21 1988 by LCMS/MS
Procedure, shortened: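 Candidate glucosidases expressed in E. coli BL21(DE3) (pET24b+, autoinduction, 20 °C for 20 h); clarified lysates in 100 mM potassium phosphate pH 7.5 incubated with QS-18 (0.04 mg/ml final) 20 h at room temperature. Quenched with MeCN, analysed by LC-MS/MS for % conversion; hits >3 S.D. above negative control.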

Molecule | Expt 4-1 % conv
B1 | 13.6%
B2 | 0.4%
B3 | 9.2%
B4 | 17.2%
B5 | 0.5%
B6 | 10.2%

Assay: Experiment 4-2: screening of glucosidases for deglycosylation with purified QS-18 (1 mg/ml) at pH 6 and 30 deg C
Assay type: biochemical, Quillaja saponaria
Settings: pH 6, 30 degC, 18 hrs, clarified lysate, LCMS/MS
Procedure, shortened: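 Clarified lysates of glucosidase-expressing cells in 100 mM potassium phosphate pH 6 were incubated 18 h at 30 °C with QS-18 at 1 mg/ml final. Reactions quenched with MeCN; deglycosylation activity determined by LC-MS/MS.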

Molecule | Expt 4-2 % conv
B1 | 0.9%
B2 | 0.6%
B3 | 0.9%
B4 | 2.1%
B5 | 0.8%
B6 | 0.4%

Assay: Experiment 4-4: screening of glucosidases for deglycosylation of QS-18 in crude bark extract (1 in 20 dilution) to QS-21
Assay type: biochemical, Quillaja saponaria
Settings: CBE 1 in 20 dilution, pH 6, 25 degC, 18 hours; % conversion of Middle Peak by UV HPLC
Procedure: Lysates were prepared as in Experiment 4-2.
Crude bark extract (CBE) was adjusted to pH 6 by dropwise addition of 2M NaOH with stirring. 25 uL of clarified lysate was transferred to a reaction plate, 22.5 ul of 100 mM potassium phosphate buffer pH 6 was added, 2.5 ul CBE at pH 6 was added. Reaction plates were sealed, incubated at 25 degC with shaking for 18 hours, then quenched by addition of 50 uL acetonitrile (MeCN). Quenched reaction plates were re-sealed and incubated at 20 degC with shaking for 10 min. The reaction plates were centrifuged (10 min, 4 degC) and analysed by UV HPLC with the method below:
Three key peaks of interest are apparent using this chromatography: Left Peak (retention time approximately 2.30-2.35 min) comprising mainly QS-17 family components; Middle Peak (retention time approximately 2.37-2.42 min) comprising mainly QS-18 family components and desglucosyl-QS-17 family components; and Right Peak (retention time approximately 2.44-2.50 min) comprising mainly QS-21 family components. Peak identity was supported by MS/MS.
Enzyme activity is calculated as the % conversion of the Middle Peak present in the crude bark extract: […]

Molecule | Expt 4-4 % conv
B1 | <3%
B3 | <3%
B4 | <3%
B6 | <3%
